Test results from US20240226186A9, “OBLIGATE ANAEROBIC HUMAN INTESTINAL MICROBE FOR CANCER TREATMENT, AND USE THEREOF” (HEALTHBIOME, priority 2019, published 2024).

B1: HB03-01: protein produced by the HB03 strain, SEQ ID NO 1, overexpressed in E. coli and purified (protein)
chain: IVNSKRSELDKKISIAAKEIKSANAAEITPSRSSNEELEKELNRYAKAVGSLETAYKPFLASSALVPTTPTAFQNELKTFRDSLISSCKKKNILITDTSSWLGFQVYSTQAPSVQAASTLGFELKAINSLVNKLAECGLSKFIKVYRPQLPIETPANNPEESDEADQAPWTPMPLEIAFQGDRESVLKAMNAITGMQDYLFTVNSIRIRNERMMPPPIANPAAAKPAAAQPATGAASLTPADEATAPAAPAIQQVIKPYMGKEQVFVQVSLNLVHFNQPKAQEPSED
modifications: HB03-01
B2: HB03-03: protein produced by the HB03 strain, SEQ ID NO 2, overexpressed in E. coli and purified (protein)
chain: IPESSVPAAAVSSVKGAYPNAGPIEWDSEMHGMERIYEAEFRINGFQFDVKIAPDGKIVRIKEEIAASSLPEAVRASVLKRYPGCRIKEAEKITEGELVRYKVEVADSRDDYDVLIAPDGNILHVDR
modifications: HB03-03

How the values were obtained:
[1] = tested on: MC38 colorectal cancer cells; test: Tumor growth in mice inoculated with MC38 colorectal cancer cells; format: in vivo, C57BL/6 JAX mice; details: administered 5 times until day 16 with 2-day intervals from day 5 (FIG. 19)
Text: 6- to 8-week old male C57BL/6J JAX and BALB/c mice purchased from Daehan Biolink were used. Each of the mice was housed in a cage and was maintained under a controlled environment (12-hour light/dark cycle, light-off at 7 pm) with free access to feed and water ad libitum. Tumorigenesis was induced by injecting pancreatic cancer cells (Panc02), melanoma cells (B16F10), glioma cells (GL261), sarcoma cells (MCA205) colorectal cancer cells (MC38) and lung cancer cells (LLC) to the C57BL/6 JAX mice and injecting colorectal cancer cells (CT26) to the BALB/c mice. Specifically, 1×10^7 cells/100 μL of Panc02, 2×10^5 cells/100 μL of B16F10, 5×10^5 cells/100 μL of GL261, 5×10^5 cells/100 μL of MCA205, 5×10^5 cells/100 μL of MC38, 5×10^5 cells/100 μL of LLC or 5×10^5 cells/100 μL of CT26 tumor cells were subcutaneously injected to the mice. Tumor size was measured with 2- or 3-day intervals until the end of the experiment, and tumor volume was calculated as length×width^2×0.5. In order to investigate the change in tumor size and immune environment owing to HB03 and its fragment, intestinal contents were recovered, immersed in liquid nitrogen and then kept at −80° C. All animal experimental procedures were approved by the Animal Care and Use Committee of Korea Research Institute of Bioscience and Biotechnology. […]

[2] = tested on: colorectal cancer cells (CT26); test: MTT assay, proliferation of colorectal cancer cells; format: cell-based; details: CT26, 0.1, 1.0 or 10 μg/mL for 48 hours, 2-DG 20 mM (FIG. 18A)
Method: (§1) Then, it was investigated whether the purified HB03-01 and HB03-03 proteins affect the proliferation or apoptosis of cancer cells. Specifically, after treating colorectal cancer cells (CT26) and lung cancer cells (LLC) with the HB03-derived protein HB03-01 at concentrations of 0 (untreated), 0.1, 1.0 or 10 μg/mL or with HB03-03 at 10 μg/mL, the proliferation of the cancer cells and the activity of the apoptosis-regulating enzyme caspase-3 were investigated.
(§2) MTT assay was conducted to investigate the change in the proliferation of the cancer cells. The cancer cells were cultured using a DMEM medium (Gibco, USA) for 24 hours on a 96-well plate at 1×10^4 cells/well in a 5% CO2 incubator at 37° C. A low-glucose condition was maintained by treating with 2-deoxyglucose (2-DG) to a final concentration of 20 mM. After culturing for 6 hours, HB03-01 was treated at a concentration of 0, 0.1, 1.0 or 10 μg/mL for 48 hours. After adding 10 μL of an MTT solution, the cells were cultured further for 2 hours. After removing the medium from the 96-well plate and dissolving a formazan formed on the plate with 100 μL of DMSO, absorbance was measured at 540 nm using an ELISA reader (Model 680, BioRad). A control group was treated with 0 μg/mL HB03-01 (untreated), and the measurement values were represented as relative cell survivability (%) with respect to the number of cells in the control group as 100%.

lung cancer cells (LLC) = test: MTT assay, proliferation of lung cancer cells; format: cell-based; details: LLC, 0.1, 1.0 or 10 μg/mL for 48 hours, 2-DG 20 mM (FIG. 18B)
Method: as §1, §2

caspase-3 = test: Western blot of caspase-3 activity level in lung cancer cells; format: cell-based; details: LLC lung cancer cells, 10 μg/mL for 24 hours (FIG. 18C)
Method: as §1
Western blot was conducted to investigate the activity level of caspase-3. Lung cancer cells treated with 10 μg/mL of HB03-01 or HB03-03 for 24 hours were homogenized in an ice-cold 20 mM Tris-HCl buffer (pH 7.5) containing 2 mM EDTA (ethylenediaminetetraacetic acid), 0.5 mM EGTA (ethylene glycol tetraacetic acid), 300 mM sucrose and 2 mM PMSF (phenylmethylsulfonyl fluoride). After electrophoresing 50 μg of proteins on 15% SDS-PAGE (sodium dodecyl sulfate-polyacrylamide gel electrophoresis) gel, they were transferred onto a PVDF (polyvinylidene fluoride) membrane using a semidry transfer system (Hoefer, Holliston, MA, USA). Non-specific binding was blocked by incubating with 5% non-fat dry milk. […] The immune complexes were detected using an ECL detection kit (Amersham Biosciences Korea, Seoul, Korea) and auto-radiographed onto an X-ray film. […]

Molecule | Tumor growth vs control group, post-treatment with HB03-derived protein [1] | Proliferation of colorectal cancer cells (relative cell survivability) [2] | Proliferation of lung cancer cells (relative cell survivability) (lung cancer cells (LLC)) | Activation of apoptosis-regulating enzyme (caspase-3) (caspase-3)
B1 | significantly inhibit tumor growth | significantly decreased | significantly decreased | activated
B2 | significantly inhibit tumor growth | – | – | activated
